In patent EP2762886A1:

Molecular target: 4E wild type (overexpressed in stably transfected NIH3T3 cells)
Assay: cell-based or functional assay

## human promyelocytic leukemia protein PML (overexpressed from pLINKSV40-PML) (from UniProt P29590 1-882)
  viability of serum deprived cells (annexin V / propidium iodide flow cytometry) (% viable cells): 40
